According to US20160106863A1 (IMMUNOGEN, published 2016):

B1: huML66-sulfo-SPDB-1d conjugate (antibody, human IgG1, kappa, V domains shown)
VH: QVQLQESGPGLVKPSETLSLTCTVSGLSLASNSVSWIRQPPGKGLEWMGVIWNHGGTDYNPSIKSRLSISRDTSKSQVFLKMNSLTAADTAMYFCVRKGGIYFDYWGQGVLVTVSS
VL: DTVLTQSPSLAVSPGERATISCRASESVSTLMHWYQQKPGQQPKLLIYLASHRESGVPARFSGSGSGTDFTLTIDPMEAEDTATYYCQQSRNDPWTFGQGTKLELKR
modifications: compound 1d linked via sulfo-SPDB linker, average of 3.0 molecules per antibody; attachment residues not stated

Key:
[1] = target: T47D cells (human) (UniProt P15328); test: flow cytometry binding on T47D cells
T47D cells (human), sequence (P15328 25-234, stated change not applied): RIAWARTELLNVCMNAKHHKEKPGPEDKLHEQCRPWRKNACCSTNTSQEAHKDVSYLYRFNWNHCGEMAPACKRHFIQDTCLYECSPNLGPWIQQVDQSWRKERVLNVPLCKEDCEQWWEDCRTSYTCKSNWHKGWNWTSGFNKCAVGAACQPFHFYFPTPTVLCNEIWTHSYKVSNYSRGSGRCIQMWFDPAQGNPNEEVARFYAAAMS

[2] = target: EGFR (UniProt P00533 25-1210, limits assumed); test: cell-based or functional assay

Molecule | EC50 [1] [nM] | EC50 in pM, in vitro cytotoxicity (WST-8), Detroit562 cells [2] [pM] | EC50 in pM, in vitro cytotoxicity (WST-8), Detroit562 cells, + block (excess unconjugated antibody) [2] [pM] | EC50 in pM, in vitro cytotoxicity (WST-8), NCI-H292 cells [2] [pM] | EC50 in pM, in vitro cytotoxicity (WST-8), NCI-H292 cells, + block (excess unconjugated antibody) [2] [pM] | EC50 in pM, in vitro cytotoxicity (WST-8), NCI-H1703 cells [2] [pM] | EC50 in pM, in vitro cytotoxicity (WST-8), NCI-H1703 cells, + block (excess unconjugated antibody) [2] [pM]
huMOV19 antibody | 0.203 |  |  |  |  |  | 
B1 |  | 110 | 960 | 20 | 690 | 70 | 1310
